Assay results as given in the supplement of paper PMC7877785.
± gives the uncertainty stated by the source.

Experiment: self-splicing fitness, log relative to wild type (ln ratio); higher = more splicing; Tetrahymena group I intron in knt gene, E. coli kanamycin selection, DiMSum; sequences stand for … in CUCUCU…GGAGGGAAAAGUUAUCAGGCAUGCACCUGGUAGCUAGUCUUUAAACCAAUAGAUUGCAUCGGUUUAAAAGGCAAGACCGUCAAAUUGCGGGAAAGGGGUCAACAGCCGUUCAGUACCAAGUCUCAGGGGAAACUUUGAGAUGGCCUUGCAAAGGGUAUGGUAAUAAGCUGACGGACAUGGUCCUAACCACGCAGCCAAGUCCUAAGUCAACAGAUCUUCUGUUGAUAUGGAUGCAGUUCACAGACUAAAUGUCGGUCGGGGAAGAUGUAUUCUUCUCAUAAGAUAUAGUCGGACCUCUCCUUAAUGGGAGCUAGCGGAUGAAGUGAUGCAACACUGGAGCCGCUGGGAACUAAUUUGUAUGCGAAAGUAUAUUGAUUAGUUUUGGAGUACUCGUGGUCG
Procedure, shortened: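 A randomised library covering all eight P1ex-region intron nucleotides was built with the intron in the knt kanamycin-resistance gene on pET-22b(+) and held in E. coli BL21(DE3). Cells were grown overnight at 37°C or 30°C on LB agar, with or without 25 μg/mL kanamycin, plus 100 μg/mL carbenicillin, 50 μM IPTG and 0.2% rhamnose, and pooled colonies were amplicon-sequenced on an Illumina HiSeq 2500. DiMSum fitness is the error-weighted combination of wild-type-normalised replicate fold changes, kanamycin versus none.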

Sequence | self-splicing fitness (ln) (30 °C) | self-splicing fitness (ln) (37 °C)
UUGAAGCAAUAUUACGCCAG | -0.461 ± 0.14 | 0.214 ± 0.21
UUGAAGCAAUAUUACGCUCU | -1.82 ± 0.12 | -0.916 ± 0.12
UUGAAGCAAUAUUACGCUGA | -1.61 ± 0.15 | -0.574 ± 0.19
UUGAAGCAAUAUUACGGAGC | -2.81 ± 0.21 | -2.5 ± 0.41
UUGAAGCAAUAUUACGGCAC | -0.928 ± 0.13 | -0.814 ± 0.17
UUGAAGCAAUAUUACGGUAA | -0.968 ± 0.1 | -0.399 ± 0.12
UUGAAGCAAUAUUACGGUAU | -2.49 ± 0.11 | -1.5 ± 0.18
UUGAAGCAAUAUUACGGUCU | -0.0588 ± 0.058 | -0.0885 ± 0.075
UUGAAGCAAUAUUACGGUGU | -3.13 ± 0.17 | -1.16 ± 0.15
UUGAAGCAAUAUUACGUACC | -3.61 ± 0.41 | -1.07 ± 0.35
UUGAAGCAAUAUUACGUAGA | -1.28 ± 0.12 | -0.894 ± 0.15
UUGCAGCAAUAUUACGAACU | -2.25 ± 0.23 | -2.11 ± 0.22
UUGCAGCAAUAUUACGAAUU | -2.18 ± 0.18 | -0.985 ± 0.19
UUGCAGCAAUAUUACGACGA | 0.0944 ± 0.089 | 0.407 ± 0.12
UUGCAGCAAUAUUACGAGUU | -4.24 ± 0.27 | -3.36 ± 0.37
UUGCAGCAAUAUUACGAUAU | -4.06 ± 0.32 | -1.78 ± 0.24
UUGCAGCAAUAUUACGAUCC | -3.64 ± 0.47 | -1.68 ± 0.35
UUGCAGCAAUAUUACGCACA | -0.577 ± 0.11 | 0.406 ± 0.15
UUGCAGCAAUAUUACGCACG | -1.2 ± 0.13 | -1.24 ± 0.12
UUGCAGCAAUAUUACGCAUA | -1.6 ± 0.13 | -0.643 ± 0.12
UUGCAGCAAUAUUACGCGCA | -1.84 ± 0.14 | -0.231 ± 0.18
UUGCAGCAAUAUUACGCGCG | -1.88 ± 0.12 | -1.29 ± 0.14
UUGCAGCAAUAUUACGCGGA | -1.29 ± 0.12 | -0.882 ± 0.13
UUGCAGCAAUAUUACGCUAC | -0.542 ± 0.29 | –
UUGCAGCAAUAUUACGGAGC | -2.2 ± 0.15 | –
UUGCAGCAAUAUUACGGCAA | -3.02 ± 0.23 | -2.27 ± 0.24

Sequence | self-splicing fitness (ln) (30 °C) | self-splicing fitness (ln) (37 °C)
UUGCAGCAAUAUUACGGCGC | -1.8 ± 0.24 | -1.84 ± 0.31
UUGCAGCAAUAUUACGUAGA | -1.46 ± 0.074 | -0.271 ± 0.079
UUGCAGCAAUAUUACGUAUG | -1.8 ± 0.081 | -1.11 ± 0.12
UUGCAGCAAUAUUACGUCGA | -0.56 ± 0.09 | 0.0432 ± 0.13
UUGCAGCAAUAUUACGUGCG | -3.18 ± 0.16 | -1.43 ± 0.14
UUGCAGCAAUAUUACGUUGU | -3.23 ± 0.2 | -2.81 ± 0.2
UUGCAGCAAUAUUACGUUUA | -1.31 ± 0.096 | -1.02 ± 0.088
UUGGAGCAAUAUUACGAAGU | -3.34 ± 0.37 | 0.521 ± 0.31
UUGGAGCAAUAUUACGACGU | -1.85 ± 0.48 | –
UUGGAGCAAUAUUACGAGAA | – | -1.78 ± 0.44
UUGGAGCAAUAUUACGAGGC | -3.52 ± 0.4 | –
UUGGAGCAAUAUUACGAGUC | – | -3.03 ± 0.43
UUGGAGCAAUAUUACGAUCA | 0.364 ± 0.35 | -0.451 ± 0.45
UUGGAGCAAUAUUACGAUGA | -0.635 ± 0.11 | -0.543 ± 0.11
UUGGAGCAAUAUUACGAUGU | -1.71 ± 0.44 | -1.83 ± 0.35
UUGGAGCAAUAUUACGCACG | -1.33 ± 0.17 | -1.92 ± 0.29
UUGGAGCAAUAUUACGCCCG | -1.94 ± 0.45 | –
UUGGAGCAAUAUUACGCGGA | – | -1.08 ± 0.36
UUGGAGCAAUAUUACGCUUG | -2.69 ± 0.3 | -1.25 ± 0.27
UUGGAGCAAUAUUACGGCUG | -2.22 ± 0.28 | –
UUGGAGCAAUAUUACGGUCA | -1.21 ± 0.16 | -2.65 ± 0.23
UUGGAGCAAUAUUACGGUCG | -2.36 ± 0.28 | –
UUGGAGCAAUAUUACGUAAU | -3.28 ± 0.19 | -2.38 ± 0.31
UUGGAGCAAUAUUACGUAUG | -3.25 ± 0.36 | -1.36 ± 0.37
UUGGAGCAAUAUUACGUCAG | -2.63 ± 0.26 | -0.954 ± 0.2
UUGGAGCAAUAUUACGUUCU | – | -3.09 ± 0.27
